Reference: the supplement of paper PMC10126150
± gives the standard deviation of the averaged measurements.

Tested on: ATP
Assay: switch fluorescence ratio, 500 uM ATP over buffer (Cy3 cluster intensity, sum of 5 cycles each) (fold (ratio)); higher = stronger signal-on switching upon ATP binding; sequences stand for … in TCGTCGGCAGCGTCAGATGTGTATAAGAGACAGTTTTTTTTTTTTTTTTTTTTTTTTT…TC
Settings: aptamer strand: ATP DNA aptamer (quencher-CACCTGGGGGAGTATTGCGGAGGAAGG + anchor), 100 nM annealed; ATP concentration: 500 uM
Method in brief: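 Five buffer/ATP imaging cycles were run on Cy3-labelled switching-strand clusters on a modified Illumina MiSeq flow-cell, with NaOH stripping and re-annealing between cycles. In each cycle, clusters annealed to 100 nM quencher-labelled ATP aptamer were imaged in selection buffer, then after 15 min with 500 uM ATP at 22 °C. Per cluster, the fluorescence ratio is summed target-cycle over summed buffer-cycle Cy3 intensity, averaged per switch-domain sequence. Only clusters within 100-1000 RFU were kept.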
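Also: ATP exposure 15 min at 22 °C before imaging.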

| Sequence | switch fluorescence ratio |
| --- | --- |
| GTAAGGAAAG | 1.04 ± 0.062 |
| GTAAGGATGT | 0.988 ± 0.038 |
| GTAAGGCGCA | 0.9885 ± 0.0086 |
| GTAAGGGTTG | 0.961 ± 0.012 |
| GTAAGTGAGT | 0.994 ± 0.037 |
| GTAATAATGG | 0.988 ± 0.053 |
| GTAATAGAGG | 0.9774 ± 0.0096 |
| GTAATAGTTT | 1 ± 0.036 |
| GTAATATTTC | 0.992 ± 0.027 |
| GTAATGGGCA | 1.03 ± 0.054 |
| GTAATTATGT | 1.02 ± 0.016 |
| GTAATTGGAG | 0.992 ± 0.016 |
| GTAATTTGTT | 1.01 ± 0.014 |
| GTACCTATCG | 1.01 ± 0.03 |
| GTACGAAGTT | 0.973 ± 0.013 |
| GTACGAGGGG | 0.992 ± 0.016 |
| GTACGCGGAC | 1.07 ± 0.022 |
| GTACTGTCTC | 0.9929 ± 0.0049 |
| GTACTTGGTC | 1.03 ± 0.048 |
| GTAGAAACGC | 0.998 ± 0.01 |
| GTAGAAAGGA | 2.3 ± 1.8 |
| GTAGCTGCGG | 1.02 ± 0.038 |
| GTAGCTTTGG | 1.04 ± 0.027 |
| GTAGGAAGTG | 0.9935 ± 0.0091 |
| GTAGGACTTG | 0.953 ± 0.025 |

| Sequence | switch fluorescence ratio |
| --- | --- |
| GTAGGAGGAG | 0.991 ± 0.032 |
| GTAGGCATGG | 1 ± 0.029 |
| GTAGGGAGTT | 0.977 ± 0.012 |
| GTAGGGGCGG | 1.0124 ± 0.00012 |
| GTAGGGGGAC | 1.05 ± 0.099 |
| GTAGGGTAAG | 0.988 ± 0.039 |
| GTAGTAAGGC | 2.23 ± 0.54 |
| GTAGTACCGG | 1.02 ± 0.028 |
| GTAGTAGGGC | 1.06 ± 0.016 |
| GTAGTAGGGG | 0.999 ± 0.015 |
| GTAGTATGAG | 0.999 ± 0.014 |
| GTAGTATGCA | 1.01 ± 0.02 |
| GTAGTGAGCT | 0.999 ± 0.05 |
| GTAGTGGCGA | 1.04 ± 0.026 |
| GTAGTTATGG | 1.04 ± 0.03 |
| GTAGTTTTGT | 0.987 ± 0.032 |
| GTATAAACCC | 1.03 ± 0.019 |
| GTATAATGAT | 0.977 ± 0.03 |
| GTATATCTGT | 1.01 ± 0.052 |
| GTATCATGCC | 1.01 ± 0.011 |
| GTATCCAGGG | 1.13 ± 0.036 |
| GTATCTTGGG | 1.04 ± 0.042 |
| GTATGATTCG | 0.9843 ± 0.0051 |
| GTATGGGGGG | 0.985 ± 0.026 |
| GTATGGTCGG | 0.9991 ± 0.0074 |

| Sequence | switch fluorescence ratio |
| --- | --- |
| GTATGTACTG | 1.04 ± 0.04 |
| GTATGTTGGG | 1.08 ± 0.045 |
| GTATTCAGTA | 0.995 ± 0.022 |
| GTATTCGTTT | 1 ± 0.028 |
| GTATTGCCAG | 0.995 ± 0.029 |
| GTATTGGGGC | 0.9807 ± 0.0029 |
| GTATTTCATA | 1.01 ± 0.0031 |
| GTATTTTTAG | 0.993 ± 0.033 |
| GTCACCCTTT | 1.01 ± 0.014 |
| GTCACCGACT | 1 ± 0.013 |
| GTCAGAGAGT | 1.02 ± 0.013 |
| GTCAGGATTT | 0.9925 ± 0.0087 |
| GTCAGGCTGA | 0.97427 ± 0.00022 |
| GTCAGGGCGA | 0.9931 ± 0.0023 |
| GTCAGGGGGT | 1.04 ± 0.068 |
| GTCAGGGTAC | 1.09 ± 0.072 |
| GTCAGTGAAT | 0.988 ± 0.057 |
| GTCATAGTGG | 0.9804 ± 0.003 |
| GTCATTTAAG | 0.991 ± 0.019 |
| GTCCAAGGGG | 1.04 ± 0.032 |
| GTCCGAAGGC | 0.988 ± 0.014 |
| GTCCGGCTCG | 0.9897 ± 0.0011 |
| GTCCTTTGCC | 1.06 ± 0.011 |
| GTCGAAAGGA | 0.9634 ± 0.0078 |
| GTCGAGGAAT | 1.003 ± 0.0092 |

| Sequence | switch fluorescence ratio |
| --- | --- |
| GTCGAGGGGA | 1.01 ± 0.035 |
| GTCGATTTAT | 0.986 ± 0.045 |
| GTCGCCGGGT | 0.994 ± 0.026 |
| GTCGCTTAGT | 0.973 ± 0.018 |
| GTCGGACATG | 0.993 ± 0.073 |
| GTCGGATAGT | 0.996 ± 0.013 |
| GTCGGCAGGT | 0.994 ± 0.015 |
| GTCGGCATGG | 1.07 ± 0.059 |
| GTCGGGAGGC | 1.02 ± 0.022 |
| GTCGGGATAT | 1.03 ± 0.018 |
| GTCGGGGAGG | 1.04 ± 0.031 |
| GTCGGGGTTA | 0.989 ± 0.036 |
| GTCGGTAAAC | 1.06 ± 0.014 |
| GTCGGTACGG | 1 ± 0.026 |
| GTCGGTATTT | 0.986 ± 0.03 |
| GTCGGTTGGG | 0.99 ± 0.026 |
| GTCGTAGCTT | 1.058 ± 0.0089 |
| GTCGTATAGG | 0.978 ± 0.023 |
| GTCGTATGAT | 0.9993 ± 0.0091 |
| GTCGTGTGGG | 0.996 ± 0.0025 |
| GTCGTTTGGA | 1.01 ± 0.035 |
| GTCTAGGGGG | 1.05 ± 0.089 |
| GTCTATATGG | 0.997 ± 0.032 |
| GTCTCAAGTT | 1.02 ± 0.011 |
| GTCTCTGGGG | 1.08 ± 0.083 |
